Source: the supplement of paper PMC9170038

System: MS2 coat protein
Test: apparent KD of MS2 coat protein; designed switch direction (-1 OFF switch, 1 ON switch): -1; higher = weaker reporter binding
Outline: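 Apparent KD, taken as the median over clusters for each design, was obtained by curve-fitting normalised cluster fluorescence. Designed RNA switches had been transcribed on Illumina chips by stalled E. coli RNA polymerase and titrated with SNAP-549-labelled MS2 coat protein, doubling from 0.7 or 1.5 nM to 3 µM.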

[1] = input ligand: microRNA oligo, concentration not stated
[2] = Eterna round: R95, input ligand: FMN 200 uM
[3] = Eterna round: R95, input ligand: microRNA oligo, concentration not stated
[4] = Eterna round: R95, input ligand: none

| Sequence | apparent KD of MS2 coat protein (input ligand: FMN 200 uM) [nM] | apparent KD of MS2 coat protein (input ligand: none) [nM] | apparent KD of MS2 coat protein [3] [nM] | other results |
| --- | --- | --- | --- | --- |
| UUAGGCUGAAGAUCAAUUAAUUAACAUGAGGAUCACCCAUGUAAGGAUAUCAGCUCGUGUAGAGCUGAGAAGGUACAUGCAGCC [ExNG3/18-A3] (Eterna round: R96, puzzle: Exclusion NG 3) | 436 | 101 | – | apparent KD of MS2 coat protein [1]: 135 nM |
| UUGUUGUGUGUAGGAUAUGCGUGUUAUUAUUAUGCAGAAGGACAUGAGGAUCACCCAUGUGUAUUGUUAUUAUAUAUUAUAUAU [Title] (Eterna round: R96, puzzle: Exclusion NG 1) | – | – | – | apparent KD of MS2 coat protein [1]: 15.6 nM |
| CAGAGCAGACGGAGAUCCAACAUGAGGAUCACCCAUGUCUCAAAAGCUUUUUGCUUGUCUUAUCCUCCUCUGUUCAC [Esquitian 2] (Eterna round: R97, puzzle: Sensor, turn-off variant 1) | 18.3 | 17.4 | – | – |
| GAGGAACAUGAGGAUCACCCAUGUAAGGAUAUGCGAGACUAAAGCGCGCAGGCUAAGAGCAGAAGGUGCAAGGA [Excls1-IIa] (puzzle: Exclusion 1) | – | – | 28.7 | apparent KD of MS2 coat protein [2]: 36 nM; apparent KD of MS2 coat protein [4]: 32.8 nM |
| CCAAACAGAGGAUAUGCGAAUAAAUAAAACUUUUUUUUUUAACAUGAGGAUCACCCAUGUAGAAGGCUGAAACC [Ex2 #41] (Eterna round: R97, puzzle: Exclusion 2) | 29.3 | 27.6 | – | – |
| GAAAAGAGAGGAUAUACUUGAGGAUCACCCAAGUAGGCGGUAACCGCCACGGGCCAGAGUAGAAGGCUCAAAAC [Beceanlave] (Eterna round: R97, puzzle: Exclusion 3) | 141 | 32.2 | – | – |
| CCGCAAAUGCAGGAUAUCGUAUCGGAUACGAUACGAGAAGGGCAUACAUGAGGAUCACCCAUGUGUCCUAGCGG [Fiskers Ex 6 - 43] (puzzle: Exclusion 6) | – | – | 16 | – |
| CAUUAUUAUCGAGGAUAUCCUAUUGAAAUUCUGGGAGAAGGCGGACUCAACAUGAGGAUCACCCAUGUGGGACGGAUGCUAGGG [Ex NG1 #28] (Eterna round: R96, puzzle: Exclusion NG 1) | – | – | – | apparent KD of MS2 coat protein [1]: 17.5 nM |
| UAGAAGGUAGGAUAUACGAAUAAAUAGGGUAGAAUAAUAACACAUGAGGAUCACCCAUGUAGAAGGACCAAGAU [Mat - Exclusion 2 - Mod of my Tesla design - D30] (puzzle: Exclusion 2) | – | – | 20.7 | apparent KD of MS2 coat protein [2]: 42.9 nM; apparent KD of MS2 coat protein [4]: 20.7 nM |
| UCGUGGUUACUCUGCAGUUUCCUGAGCGGAGGCUCUUUGACAUGAGGAUCACCCAUGUUGCUUUUUGCUCAUCUUAA [JR_SV3TOV2_Sub041] (puzzle: Sensor v3, turn-off variant 2) | – | – | 15.8 | apparent KD of MS2 coat protein [2]: 14.2 nM; apparent KD of MS2 coat protein [4]: 12.4 nM |
| GGCAAACAUGAGGAUCACCCAUGUAAGGAUAUUAGGCGAUCGUCGAAAGACGAUAGCCUGAGAAGGUGCAUGCC [Eli x1 4.15] (Eterna round: R97, puzzle: Exclusion 1) | 38.8 | 22.4 | – | – |
| UUUUUAUAUGAAGGAUAUACUUAACAUGAGGAUCACCCAUGUGGUGUUGUGAGUGAGAGAGUUUAGUAGAAGGUCAAUUAUUUU [JMF's solution 5] (Eterna round: R96, puzzle: Exclusion NG 2) | 714 | 300 | – | apparent KD of MS2 coat protein [1]: 280 nM |
| CACUCACAUGAGGAUCACCCAUGUCAGGAUAUCUCAGUGCAUCCACACGGACGCAUCAAGAGAAGGGACAAAAC [Vinxlusion 1 - Jieux - Exclusion 1] (Eterna round: R97, puzzle: Exclusion 1) | 40.2 | 36.6 | – | – |
| UUCAGACAUGAGGAUCACCCAUGUGAGGAUAUGAUGCGAUCGUCGAAAGACGAUAGCAUCAGAAGGCACGUAUG [Fiskers Ex 1 - 16] (puzzle: Exclusion 1) | – | – | 97.8 | – |
| UAAUAUCUGUAGGAUAUCAGUGGAGCACACGUAUGAGAAGGGCAGACAUGAGGAUCACCCAUGUAUAGGGUCCG [BotMod 5 - Jieux - Exclusion 6] (Eterna round: R97, puzzle: Exclusion 6) | 38.7 | 29.3 | – | – |
| UUCUUACAUGAGGAUCACCCAUGUCAGGAUAUCUCCUCACUGCGCUUGCGCAGUGAAUAGAGAAGGGACAGGCU [JL ViennaUCT Aner mod 2] (puzzle: Exclusion 1) | – | – | 37.3 | – |
| AAGUACCGUCACGAUAGUGAUGGUACAACAAGCAGUGAAACAUGAGGAUCACCCAUGUCCUCAGUUGCUCGUCUUAU [Sensor 3 - 79] (puzzle: Sensor v3, turn-off variant 2) | – | – | 492 | apparent KD of MS2 coat protein [2]: 196 nM; apparent KD of MS2 coat protein [4]: 195 nM |

| Sequence | apparent KD of MS2 coat protein (input ligand: FMN 200 uM) [nM] | apparent KD of MS2 coat protein (input ligand: none) [nM] | apparent KD of MS2 coat protein [3] [nM] | other results |
| --- | --- | --- | --- | --- |
| ACGCGACAUGAGGAUCACCCAUGUGAGGAUAUGGCCUGUUUGGCGUGUGCUGGCUCUGUCAGAAGGCGCGUGGG [salish99_ex1_r4_040] (Eterna round: R97, puzzle: Exclusion 1) | 141 | 90.4 | – | – |
| CAGUACUGAGGAUAUACAUGAGGAUCACCCAUGUGUUCCAGCUAGGAAACUAGCAAUGGAAGAAGGCAGUACUG [Salish 065 m1] (Eterna round: R97, puzzle: Exclusion 3) | 18.8 | 21.6 | – | – |
| GAGACUGGAGGAUAUACGAACUGGUGUAUCUGGAAGGAUCGACUUGAGGAUCACCCAAGUAGAAGGCUAGUGAA [Esgeti] (Eterna round: R97, puzzle: Exclusion 2) | 395 | 40.5 | – | – |
| CAGUACUGAGGAUAUACAUGAGGAUCACCCAUGUAUCCAAGCUAGGAAACUAGCAAAUGUAGAAGGCAGUACUG [Ex3: 821] (Eterna round: R96, puzzle: Exclusion 3) | – | – | – | apparent KD of MS2 coat protein [1]: 30.9 nM |
| GAGUGACAUGAGGAUCACCCAUGUGAGGAUAUCGGACGGACCUUGUUGGCUUCCGCCGCGAGAAGGCACAUCGG [Exclusion 1 V26] (puzzle: Exclusion 1) | – | – | 87.5 | – |
| UAUUAGCGAGGAUAUACAUGAGGAUCACCCAUGUGAUCCUAAGGCUGAUAAAGCCUAUGUAGAAGGCGCAAAAG [jl-ex3.4.51 ViennaUCT mod] (Eterna round: R97, puzzle: Exclusion 3) | 227 | 421 | – | – |
| AUUUAUGUUGAGGAUAUGCGAAUAAGUAUAGUUGCAGAAGGCGACACAUGAGGAUCACCCAUGUUCAUGGACCC [LRO-Ex6-02] (puzzle: Exclusion 6) | – | – | 81.5 | apparent KD of MS2 coat protein [2]: 181 nM; apparent KD of MS2 coat protein [4]: 127 nM |
| CUCGUGUAAGGAUAUGCGAGCCACGGAAAUAAAACGUGGAGGUAGAAGGUACAUGAGGAUCACCCAUGUAAAAC [Anonveat] (puzzle: Exclusion 4) | – | – | 24.3 | – |
| UUGAUUCAUUCCUCCAUAAACAUGAGGAUCACCCAUGUAAGUGAGGAUAUAGUUUGUUUAGUAUACUAGAAGGCACUUAGAUAU [JR_ExcNG3_Sub046] (Eterna round: R96, puzzle: Exclusion NG 3) | 12.7 | 12.6 | – | apparent KD of MS2 coat protein [1]: 9.61 nM |
| GGUUGGCGAGGAUAUACAUGAGGAUCACCCAUGUGAGAGAUACUAGUGAGGUCGAUUGGUAGAAGGCGCUGACA [Mat - Exclusion 3 - Mod of JL D78] (puzzle: Exclusion 3) | – | – | 114 | – |
| AACAAGCUUUUUUGAUGAAUGAUAGUAGGUAGCUCCUUUACAUGAGGAUCACCCAUGUUUGUGUAGCUCGAUCUUUU [JR_SV3TOV2_Sub077] (puzzle: Sensor v3, turn-off variant 2) | – | – | 16.2 | apparent KD of MS2 coat protein [2]: 12.7 nM; apparent KD of MS2 coat protein [4]: 12.1 nM |
| UGAUCAGACCGAGGAUAUAUAUGUAGGACGCACGUGAGUGCGUCCAAUACAUGAGGAUCACCCAUGUAGAAGGCGGUCUGAUCU [JL ENG2 1.97] (Eterna round: R96, puzzle: Exclusion NG 2) | 18.5 | 14.2 | – | apparent KD of MS2 coat protein [1]: 9.9 nM |
| CCCUCACAUGAGGAUCACCCAUGUCAGGAUAUCUCACAUCAGCCUUAGGCCGAUGUCUAGAGAAGGGACGUAUC [Latees] (puzzle: Exclusion 1) | – | – | 21.3 | – |
| GUGUAGUGAGGAUAUCGUUGUUAGGAGGAGAAGGUAGGAGGCGAGAAGGCACAUGAGGAUCACCCAUGUAUGAG [JR_Exclu4_Sub063] (puzzle: Exclusion 4) | – | – | 23.5 | – |
| ACAUGUAAUGCAGGAUAUGGGACACAUGAGGAUCACCCAUGUGACCAGAUGUAAUGCUAAGAGUCUCAGAAGGGUAUGUACAUG [Ex NG2 #48] (Eterna round: R96, puzzle: Exclusion NG 2) | 17.8 | 17.8 | – | apparent KD of MS2 coat protein [1]: 13.2 nM |
| GUCAUGUUAGGAUAUCUAACAUGUGACUUCGGUCACUGUCCAGAGAAGGAACAUGAGGAUCACCCAUGUUGGAC [Ex4-3: 56] (Eterna round: R96, puzzle: Exclusion 4) | 16.5 | 18.3 | – | apparent KD of MS2 coat protein [1]: 13.9 nM |
